From publication PMC10748205

Assays:
Assay in all cases: two-hybrid
[1] = biological target: Gt-1 ORF3 KISS (hepatitis E virus genotype 1 (Sar-55))
[2] = biological target: Gt-3 ORF3 KISS (hepatitis E virus genotype 3 (Kernow-C1 p6))
[3] = biological target: Gt-1 ORF3 MAPPIT (hepatitis E virus genotype 1 (Sar-55))

B1: SHANK-Associated RH Domain Interactor (natural protein)
chain: MAPPAGGAAAAASDLGSAAVLLAVHAAVRPLGAGPDAEAQLRRLQLSADPERPGRFRLELLGAGPGAVNLEWPLESVSYTIRGPTQHELQPPPGGPGTLSLHFLNPQEAQRWAVLVRGATVEGQNGSKSNSPPALGPEACPVSLPSPPEASTLKGPPPEADLPRSPGNLTEREELAGSLARAIAGGDEKGAAQVAAVLAQHRVALSVQLQEACFPPGPIRLQVTLEDAASAASAASSAHVALQVHPHCTVAALQEQVFSELGFPPAVQRWVIGRCLCVPERSLASYGVRQDGDPAFLYLLSAPREAPATGPSPQHPQKMDGELGRLFPPSLGLPPGPQPAASSLPSPLQPSWSCPSCTFINAPDRPGCEMCSTQRPCTWDPLAAAST
[1]
  BP/BIP: 42.2
  BP/PIB: 429
  Value BP (bait-prey luciferase value): 796000
[2]
  BP/BIP: 25.4
  BP/PIB: 101
  Value BP (bait-prey luciferase value): 188000
[3]
  BP/BIP: 61.2
  BP/PIB: 69.9
  Value BP (bait-prey fold induction): 82.1
